Assay results taken from patent US6177557, “High affinity ligands of basic fibroblast growth factor and thrombin” (NeXstar Pharmaceuticals, Inc.).

B1: 2'-NH2 49A (ssRNA)
RNA: GGGAGACAAGAAUAACGCUCAAAUGGUGUGUGGAAGACAGUGGGUGGUUGCAUUCGACAGGAGGCUCACAACAGGC
modifications: 2'-NH2 pyrimidines
B2: 2'-NH2 53A (ssRNA)
RNA: GGGAGACAAGAAUAACGCUCAAUGAGGAUCGGAUGGGGAGCAGGCGGAGGAAUUCGACAGGAGGCUCACAACAGGC
modifications: 2'-NH2 pyrimidines
B3: 2'-NH2 47B (ssRNA)
RNA: GGGAGGACGAUGCGGAGGGUGGCUGGGAGGACCCGCGGUGAAUCGGUAGCACAGUGAUGUUCGGUCAGACGACUCGCCCGA
modifications: 2'-NH2 pyrimidines
B4: 2'-NH2 52B (ssRNA)
RNA: GGGAGGACGAUGCGGGGAGGGGCAGGUUCGAUGCGGGAGCGACUGACCACGAGAAAUGUGCGGGUCAGACGACUCGCCCGA
modifications: 2'-NH2 pyrimidines
B5: 2'-NH2 54A (ssRNA)
RNA: GGGAGACAAGAAUAACGCUCAAACUGUUGUGUGGAAGACAGCGGGUGGUUGAUUCGACAGGAGGCUCACAACAGGC
modifications: 2'-NH2 pyrimidines
B6: 2'-NH2 58A (ssRNA)
RNA: GGGAGACAAGAAUAACGCUCAAUUAACGGCGUGGUCCGAGGGUGGCGAGUACUUCGACAGGAGGCUCACAACAGGC
modifications: 2'-NH2 pyrimidines
B7: M19 (ssDNA)
DNA: GGGAGGACGATGCGGGGCTATGTAAATTACTGCTGTACTACGCATCAGACGACGACGGGGA
B8: M225 (ssDNA)
DNA: GGGAGGACGATGCGGGGCTACGTACCGGGGCTTTGTAAAACCCCGCAGACGACGACGGGGA
B9: m234 (ssDNA)
DNA: GGGAGGACGATGCGGCCCGAGGAGCTTTAGCGCCACAGGTTTGTGCAGACGACGACGGGGA
B10: m206 (ssDNA)
DNA: GGGAGGACGATGCGGACCTGGTGGCTGTGCTTATGTCCCCCTCATCAGACGACGACGGGGA
B11: m224 (ssDNA)
DNA: GGGAGGACGATGCGGCACCGAGGAATAACTGACGCCAGGCTGGCGCAGACGACGACGGGGA
B12: M235 (ssDNA)
DNA: GGGAGGACGATGCGGGGCTCTGCAAAGGACACAGGTCCTACGCATCAGACGACGACGGGGA
B13: M17 (ssDNA)
DNA: GGGAGGACGATGCGGGGGGCTTTGCAAAAATTGTTAAATCTACCCCAGACGACGACGGGGA
B14: 2'-NH2 72B (ssRNA)
RNA: GGGAGGACGAUGCGGCUCAGCAUCCAGGAAGGGGACUUGGUAGGGCACCAUCGAGAUCUUGGCGUCAGACGACUCGCCCGA
modifications: 2'-NH2 pyrimidines
B15: 2'-NH2 22B (ssRNA)
RNA: GGGAGGACGAUGCGGCGUGGUUCCGUGGGUGGUGAGAUGAGACUUAAUCAGUUCGUAGACCGGUCAGACGACUCGCCCGA
modifications: 2'-NH2 pyrimidines
B16: 26A (ssRNA)
RNA: GGGAGCUCAGAAUAAACGCUCAACGUCAGAAGGCAACGUAUAGGCAAGCACACUUCGACAUGAGGCCCGGAUCCGGC
B17: 7A (ssRNA)
RNA: GGGAGCUCAGAAUAAACGCUCAAUCGGCGAGCUAACCAAGACACUCGCUGCACUUCGACAUGAGGCCCGGAUCCGGC
B18: 5A (ssRNA)
RNA: GGGAGCUCAGAAUAAACGCUCAAAUCUCCUCCCGUCGAAGCUAACCUGGCCACUUCGACAUGAGGCCCGGAUCCGGC
B19: 30-8 (ssDNA)
DNA: AGATGCCTGTCGAGCATGCTGTGAATAGGTAGGGTCGGATGGGCTACGGTGTAGCTAAACTGCTTTGTCGACGGG
B20: 60-7 (ssDNA)
DNA: AGATGCCTGTCGAGCATGCTGGCGGCGTTGGTGTAGTGGCGCACTGTGGTTGGGCGGAGAGGCTAGGAGTGCATGATGCCGTAGCTAAACTGCTTTGTCGACGGG
B21: 60-27 (ssDNA)
DNA: AGATGCCTGTCGAGCATGCTGGCGTCCGATGATTCAGGTCGTGGTAGGCATTGAGGGATGGGGTCCTGTGGGACTGGCCTGTAGCTAAACTGCTTTGTCGACGGG
B22: 60-18 (ssDNA)
DNA: AGATGCCTGTCGAGCATGCTCTTTGGAGACAGTCCGTGGTAGGGCAGGTTGGGGTGACTTCGTGGAAGAAGCGAGACGGTGTAGCTAAACTGCTTTGTCGA
B23: 30-6 (ssDNA)
DNA: AGATGCCTGTCGAGCATGCTACACCCGTGGTAGGGTAGGATGGGGTGGTCGTAGCTAAACTGCTTTGTCGACGGG
B24: 30-35 (ssDNA)
DNA: AGATGCCTGTCGAGCATGCTGGGAGTGGTAGGAGTAGGGTTGGAGCCGTAGTAGCTAAACTGCTTTGTCGACGGG
B25: 30-16 (ssDNA)
DNA: AGATGCCTGTCGAGCATGCTGCCGCTACGAGGGTAGGTGTGGATGCTGCCGTAGCTAAACTGCTTTGTCGACGGG
B26: 30-14 (ssDNA)
DNA: AGATGCCTGTCGAGCATGCTGTTGTGGTAGGGTTAGGGATGGTAGCGGTTGTAGCTAAACTGCTTTGTCGACGGG

target: T1, basic fibroblast growth factor (bFGF) (UniProt P09038 P09038:135-288); experiment: filter; settings: tags: Bachem California, 18 kDa, 154 aa; 125I-labeled for receptor assays
Procedure: (§1) In order to eliminate higher order structures, all DNA solutions were heated to 90° C. in PBS for 2–3 minutes and cooled on ice prior to incubation with protein. Relative binding affinity of individual ligands to bFGF cannot be predicted from sequence information. The majority of sequence isolates were therefore screened for their ability to bind to bFGF by measuring the fraction of radiolabeled DNA bound to nitrocellulose filters following incubation with 1 nM protein. […] Binding of these select isolates was then analyzed in more detail.
Those ligands are M225, M19, m234, M235, and D12 (SEQ ID NOS:359, 353, 387, 360, 332). The minimum size of the region necessary for binding was determined to be 35 bases for M225, M19 and D12 (See Truncations, Table XXI M225t3 (SEQ ID NO:364), M19t2 (SEQ ID NO:365), D12t2 (SEQ ID NO:341)). The ligand with the smallest essential sequence, m234, was isolated from Family 2, Experiment 3 and contains 24 nucleotides (m234t2 (SEQ ID NO:391)). The truncated ligands were tested for binding to bFGF. After truncation, ligands M225t3, M19t2, D12t2, M235t2, and m234t2 have kd values of 0.7 nM, 1 nM, 1 nM, 1 nM, and 6 nM respectively (Table XXII). All five of the truncated molecules lost some of their affinity for bFGF in comparison to the full length ligands. The binding affinity is regained when an additional G-C base pair is added to the blunt end stem of M225t3. This molecule is termed M225t3GC (SEQ ID NO:443). The binding of M225t3GC is 0.2 nM compared to 0.7 nM for M225t3 without the additional base pair (Table XXII).

T1 sequence (P09038 135-288, one chain of several): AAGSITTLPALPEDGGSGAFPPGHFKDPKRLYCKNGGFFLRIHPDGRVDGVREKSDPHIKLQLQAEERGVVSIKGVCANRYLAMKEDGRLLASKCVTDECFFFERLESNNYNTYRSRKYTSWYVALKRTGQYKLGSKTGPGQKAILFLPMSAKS

| Binder | Kd [nM] |
| --- | --- |
| AGGCCAGGGCTATGCAAATCGCGGCGCCTATGGCC (ssDNA) [D12t2] | 1 |
| GCGGGGCTCTGCAAAGGACACAGGTCCTACGCATCAG (ssDNA) [M235t2] | 1 |
| GGCGGGGCTACGTACCGGGGCTTTGTAAAACCCCGCC (ssDNA) [M225t3GC] | 0.2 |
| CGAGGAGCTTTAGCGCCACAGGTT (ssDNA) [m234t2] | 6 |
| GCGGGGCTATGTAAATTACTGCTGTACTACGCATC (ssDNA) [M19t2] | 1 |

target: T1, basic fibroblast growth factor (bFGF); experiment: filter; PBS, 0.01% HSA, 1 mM DTT, 37 C; +/-0.3; settings: tags: Bachem California, 18 kDa, 154 aa; 125I-labeled for receptor assays
Procedure: (§2) This affinity screening allowed identification of those ligands with highest affinity for bFGF. Binding of a group of these ligands was analyzed over a range of bFGF concentrations (FIG. 5) and their dissociation constants.(Kd's) were determined as described (Jellinek et al. (1993) Proc. Natl. Acad. Sci. USA 90:11227–11231) (Table IX). RNA concentrations were determined from their absorbance reading at […] (and were typically <100 pM). Binding reactions were done at 37° C. in phosphate buffered saline containing 0.01% human serum albumin and 1 mM DTT.

| Binder | Kd [nM] |
| --- | --- |
| B1 | 1.4 |
| B2 | 1.5 |
| B3 | 2.9 |
| B4 | 2.3 |
| B5 | 1.7 |
| B6 | 1.4 |

target: T1, basic fibroblast growth factor (bFGF); experiment: filter; PBS; settings: tags: Bachem California, 18 kDa, 154 aa; 125I-labeled for receptor assays; label: 32P
Procedure: as §1

| Binder | Kd [nM] |
| --- | --- |
| B7 | 0.3 |
| B8 | 0.1 |
| B9 | 0.7 |
| B10 | 1.8 |
| B11 | 1.5 |
| B12 | 0.2 |
| B13 | 6.9 |

target: T1, basic fibroblast growth factor (bFGF); experiment: filter; PBS, 0.01% HSA, 1 mM DTT, 37 C; +/-0.5; settings: tags: Bachem California, 18 kDa, 154 aa; 125I-labeled for receptor assays
Procedure: as §2

| Binder | Kd [nM] |
| --- | --- |
| B14 | 3.4 |
| B15 | 2.8 |

target: vascular endothelial growth factor (VEGF) (UniProt P15692-4 P15692-4:27-191); experiment: filter; specificity, data not shown; settings: chain copies: 2; label: 32P
Sequence (P15692 other isoform, or with tags, fused parts or gaps): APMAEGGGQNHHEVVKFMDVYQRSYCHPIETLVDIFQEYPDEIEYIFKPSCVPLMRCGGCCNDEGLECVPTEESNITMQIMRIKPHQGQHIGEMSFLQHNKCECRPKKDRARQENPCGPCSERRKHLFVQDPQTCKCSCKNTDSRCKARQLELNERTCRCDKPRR

| Binder | Kd [nM] |
| --- | --- |
| B16 | > 300 |
| B17 | > 300 |
| B18 | > 300 |

target: T2, thrombin (alpha) (human, UniProt P00734;P00734 P00734:328-363,P00734:364-622); experiment: filter; specificity, data not shown; settings: not given

| Binder | Kd [nM] |
| --- | --- |
| B16 | > 300 |
| B17 | > 300 |
| B18 | > 300 |

target: acidic FGF (UniProt P05230 P05230:16-155); experiment: filter; specificity, data not shown; settings: label: 32P
Sequence (P05230 16-155, one chain of several): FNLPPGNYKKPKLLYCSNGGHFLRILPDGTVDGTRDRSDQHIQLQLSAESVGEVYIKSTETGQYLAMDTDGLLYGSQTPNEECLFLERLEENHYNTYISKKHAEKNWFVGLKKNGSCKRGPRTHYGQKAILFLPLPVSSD

| Binder | Kd [nM] |
| --- | --- |
| B16 | > 300 |
| B17 | > 300 |
| B18 | > 300 |

target: antithrombin III (UniProt P01008 P01008:33-464); experiment: filter; specificity, data not shown; settings: label: 32P
Sequence (P01008 33-464, one chain of several): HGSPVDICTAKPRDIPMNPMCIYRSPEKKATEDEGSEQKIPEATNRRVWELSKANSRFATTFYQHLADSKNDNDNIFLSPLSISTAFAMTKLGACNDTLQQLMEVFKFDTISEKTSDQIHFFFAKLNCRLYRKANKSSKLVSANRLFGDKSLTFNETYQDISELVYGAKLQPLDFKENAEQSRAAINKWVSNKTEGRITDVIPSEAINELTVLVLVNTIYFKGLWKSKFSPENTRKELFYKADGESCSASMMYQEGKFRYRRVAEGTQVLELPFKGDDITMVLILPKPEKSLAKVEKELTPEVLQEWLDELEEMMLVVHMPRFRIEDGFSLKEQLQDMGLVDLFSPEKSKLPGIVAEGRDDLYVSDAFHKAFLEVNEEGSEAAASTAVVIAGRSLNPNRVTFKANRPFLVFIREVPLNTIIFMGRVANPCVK

| Binder | Kd [nM] |
| --- | --- |
| B16 | > 300 |
| B17 | > 300 |
| B18 | > 300 |

target: T2, thrombin (alpha); experiment: filter; 50 mM Tris pH 7.5, 100 mM NaCl, 1 mM MgCl2, 37 C; settings: not given

| Binder | Kd [nM] |
| --- | --- |
| B19 | 0.4 |
| B20 | 2.5 |
| B21 | 0.96 |
| B22 | 0.92 |
| B23 | 1.2 |
| B24 | 1.4 |
| B25 | 9.4 |
| CAGTCCGTGGTAGGGCAGGTTGGGGTGACTTCGTGGAA (ssDNA) [60-18(38)] | 1.9 |
| B26 | 1 |
